Consider one molecule from paper PMC6555802, “CHML promotes liver cancer metastasis by facilitating Rab14 recycle” (Nature Communications, 2019).

Usually Kd stands for the equilibrium constant for the complex coming apart. Lower therefore signals higher affinity.

The target in the experiment is T1, Rab14 (fluorescence titration) (human, UniProt P61106 1-215).
T1 construct: Rab14
Briefly: other fluorescence titration; fluorescence titration assay (Supplementary Fig. 8); conditions not stated in the text shown. Particulars: both partners purified.

B1: CHML (fluorescence titration) (natural protein)
chain: MADNLPTEFDVVIIGTGLPESILAAACSRSGQRVLHIDSRSYYGGNWASFSFSGLLSWLKEYQQNNDIGEESTVVWQDLIHETEEAITLRKKDETIQHTEAFCYASQDMEDNVEEIGALQKNPSLGVSNTFTEVLDSALPEESQLSYFNSDEMPAKHTQKSDTEISLEVTDVEESVEKEKYCGDKTCMHTVSDKDGDKDESKSTVEDKADEPIRNRITYSQIVKEGRRFNIDLVSKLLYSQGLLIDLLIKSDVSRYVEFKNVTRILAFREGKVEQVPCSRADVFNSKELTMVEKRMLMKFLTFCLEYEQHPDEYQAFRQCSFSEYLKTKKLTPNLQHFVLHSIAMTSESSCTTIDGLNATKNFLQCLGRFGNTPFLFPLYGQGEIPQGFCRMCAVFGGIYCLRHKVQCFVVDKESGRCKAIIDHFGQRINAKYFIVEDSYLSEETCSNVQYKQISRAVLITDQSILKTDLDQQTSILIVPPAEPGACAVRVTELCSSTMTCMKDTYLVHLTCSSSKTAREDLESVVKKLFTPYTETEINEEELTKPRLLWALYFNMRDSSGISRSSYNGLPSNVYVCSGPDCGLGNEHAVKQAETLFQEIFPTEEFCPPPPNPEDIIFDGDDKQPEAPGTNNVVMAKLESSEESKNLESPEKHLQN
notes: choroideremia-like (CHML, REP2)
Turning to B1, the Kd is ~360 pM.
